Results taken from patent US20230151373A1, “CHIMERIC POLYPEPTIDE FOR REGULATING IMMUNE CELLS” (STICHTING HET NEDERLANDS KANKER INSTITUUT-ANTONI VAN …, priority 2019, published 2023).

B1: Zap70 2×SH2: the Zap70 SH2 domains without inhibitory tail; human Zap70 (P43403, 1-264 aa) (protein, UniProt P43403 1-264, looked up, fragment)
chain: MPDPAAHLPFFYGSISRAEAEEHLKLAGMADGLFLLRQCLRSLGGYVLSLVHDVRFHHFPIERQLNGTYAIAGGKAHCGPAELCEFYSRDPDGLPCNLRKPCNRPSGLEPQPGVFDCLRDAMVRDYVRQTWKLEGEALEQAIISQAPQVEKLIATTAHERMPWYHSSLTREEAERKLYSGAQTDGKFLLRPRKEQGTYALSLIYGKTVYHYLISQDKAGKYCIPEGTKFDTLWQLVEYLKLKADGLIYCLKEACPNSSASNASG
B2: Zap70-PD1: human Zap70 fragment (1-264 aa), a GGS linker, the human PD1 intracellular domain (192-288 aa) (protein)
chain: MPDPAAHLPFFYGSISRAEAEEHLKLAGMADGLFLLRQCLRSLGGYVLSLVHDVRFHHFPIERQLNGTYAIAGGKAHCGPAELCEFYSRDPDGLPCNLRKPCNRPSGLEPQPGVFDCLRDAMVRDYVRQTWKLEGEALEQAIISQAPQVEKLIATTAHERMPWYHSSLTREEAERKLYSGAQTDGKFLLRPRKEQGTYALSLIYGKTVYHYLISQDKAGKYCIPEGTKFDTLWQLVEYLKLKADGLIYCLKEACPNSSASNASGGGSCSRAARGTIGARRTGQPLKEDPSAVPVFSVDYGELDFQWREKTPEPPVPCVPEQTEYATIVFPSGMGTSSPARRGSADGPRSAQPLRPEDGHCSWPL

Test system: primary human T cells modified with the HLA class I restricted CDK4 TCR
Test: Cytokine release and degranulation assay, CDK4 TCR T cells co-cultured with CDK4 peptide loaded T2 cells
Format: cell-based
Protocol: For use as T cell targets, T2 and CBH 5477 cells were loaded with the indicated concentrations of HLA-A*02:01 restricted mutant CDK4 peptide (ALDPHSGHFV), HLA A*02:01 restricted NY-ESO-1 peptide (SLLMWITQA), or HLA-DR1 restricted CMV peptide (KYQEFFWDANDIYRI) in IMDM for 1 hour at 37° C. Cells were then washed once and used in co-culture experiments.
T cells and NK cells were pretreated with the indicated concentrations of asunaprevir (MedChemExpress, #HY-14434), grazoprevir (MedChemExpress, #HY-15298), dTAG-13 (Tocris, #6605) or DMSO control in T cell media (RPMI/10% human serum/penicillin-streptomycin, 100 IU/ml IL2 and 5 ng/ml IL15) or NK cell media (RPMI/8% FCS/penicillin-streptomycin, 500 IU/ml IL2), respectively, for 24 hours before co-culture experiments. 100,000 T cells or NK cells and 100,000 of indicated tumor cells were mixed in T cell or NK cell media supplemented with golgi-plug (1:1000 dilution, BD, #51-2301KZ) and anti-LAMP1-APC (1:100 dilution, Biolegend, #328620) in the presence of indicated drugs or DMSO control in 96-well plates and incubated for 5 hours at 37° C.
After incubation, cells were washed once with PBS and stained with IR dye (Invitrogen, #L34976) at 1:400 dilution for 5 minutes at 4° C. Subsequently, cells were washed once with FACS buffer (PBS plus 0.5% BSA) and stained with anti-CD8-PerCP Cy5.5 (1:20 dilution, BD, #341050), anti-CD4 BV711 (1:50 dilution, Biolegend, #317440), anti-murine constant TCR-PE (in experiments with transduced TCRs, 1:200 dilution, BD, #553172) or cetuximab-PE (in experiments with transduced CAR construct containing truncated human EGFR reporter, 1:200 dilution, R&D Systems, #FAB9577P) for 20 minutes at 4° C. Cells were then washed once with FACS buffer and fixed with BD fixation and permeabilization solution (#51-2090KZ) for 20 minutes at 4° C.
Following permeabilization, cells were washed twice with BD perm/wash buffer (#51-2091KZ) and stained with anti-IFNγ-BV421 (1:100 dilution, BD, #564791), anti-IL-2-PE-Cy7 (1:100 dilution, BD, #560707) and anti-TNFα-BV650 (1:100 dilution, Biolegend, #502938) diluted in perm/wash buffer for 20 min at 4° C. Cells were then washed twice, resuspended in 100 μl FACS buffer and analyzed directly on a Fortessa Special Order analyzer. Data were analyzed using FlowJo and Prism 7 software.

[1] = T cells co-cultured with 10 nM peptide loaded T2 tumor cells, relative to vector control

Molecule | effect of construct expression on T cell cytokine production and degranulation (no drug, T2 cells loaded with CDK4 neoantigen) | reduction in percentage responding cells, IFNγ [1] | reduction in percentage responding cells, IL-2 [1] | reduction in percentage responding cells, TNFα [1] | reduction in percentage responding cells, cell surface LAMP1 [1]
B1 | modest inhibition of T cell functions | – | – | – | –
B2 | – | 104 fold | 110 fold | 81 fold | 40 fold
